In US20150110774A1, “S100 PROTEIN INHIBITORS FOR TREATING LEUKEMIA” (UNIVERSITE LAVAL, priority 2004, published 2015):

What was measured:
advanced leukemia = details: clinical studies; cited from earlier work
leukocytes = assay: Leukocyte accumulation in the murine air pouch model; assay type: in vivo, mice; details: air pouch exudate; remainder monocytes
Description: S100A8, S100A9, and S100A12 induce an inflammatory reaction when injected in the murine air pouch model. In this model, sterile air is injected subcutaneously under the dorsum of mice on days 0 and 3. On day 7, an enclosed environment is formed in which it is possible to inject pro-inflammatory products. Injection of S100A8, S100A9, S100A12, or S100A8/A9 in the air pouch leads to the accumulation within 3 hrs of up to 8×10^6 leukocytes (FIG. 1). Leukocytes recruited consists of neutrophils (80%) and monocytes. The total number of neutrophils circulating in the peripheral blood of a mouse is estimated at 2.5×10^6 cells. […] This is confirmed by i.v. injections of S100 proteins which leads to the release of neutrophils from the bone marrow to the peripheral blood (FIG. 2). […] More importantly, the concentrations at which they exerted these functions are similar to those found in the plasma of patients suffering, for example but not limited to, from AML and CML.
Air pouches were raised in 10 to 12 week-old CD-1 mice. One ml of murine S100A8 ([…], 5 nM) or phosphate buffered saline (PBS) were injected into the air pouches and the migrating leukocytes were harvested by washing with PBS-EDTA 5 mM at various times. Leukocytes in exudates were counted, centrifuged on microscope slides and stained with Wright-Giemsa. Data represent the mean±SEM of at least 7 mice (FIG. 1).

bone marrow cells = assay: Bone marrow cell proliferation (colonies in methylcellulose, 14 days); assay type: cell-based, mice; details: mouse bone marrow cells, FIG. 3
Description: Bone marrow cells were collected by flushing PBS through incisions made in the femurs of mice, followed by disaggregation. After removing contaminating erythrocytes by hypoosmotic lysis, bone marrow cells were cultured in semi-solid state in Methocult methylcellulose-based media (Stemcell technologies) for 14 days in presence of increasing concentrations of S100A8. At the end of the incubation period, the colonies were numerated. Similar results were obtained with S100A9, S100A8/A9, and S100A12. Results are from one experiment representative of 2 others (FIG. 3). All monomers and heterodimers have shown a growth stimulatory activity on bone marrow cells.

[1] = system: bone marrow cells from AML and CML patients; assay: AML/CML patient bone marrow cell proliferation (colony assay); assay type: cell-based, human; details: FIG. 4
Description: PBMC and BM (5×10^4 cells) were incubated at 37° C. in methylcellulose-based media containing 1% methylcellulose in Iscove MDM, 30% foetal bovine serum, 1% BSA, 10^−4 M 2-mercaptoethanol and 2 mM of L-glutamine supplemented (+CSF) or not (−CSF) by 50 ng/mL of rhSCF, 10 ng/mL of rhIL-3, and 10 ng/mL of rhGM-CSF to support optimal growth of CFU-Granulocyte Macrophage (CFU-GM) CFU-Granulocyte (CFU-G) and CFU-Macrophage (CFU-M). Different concentrations of S100A12, S100A8, and/or S100A9 were also added to the cells. After 15 days, colony-forming units were counted.
Bone marrow cells were obtained by aspirates from a CML patient. (A) The cells were cultured for 14 days in Iscove medium supplemented with 15% FCS and 2% methylcellulose, in presence of increasing concentrations of S100A12. (B) The cells were culture for 14 days in presence of 10 pg/ml of S100A8, S100A9, S100A8/A9, or S100A12 in a methylcellulose medium supplemented or not with 50 ng/ml of Stem cell factor, 10 ng/ml of GM-CSF, and 10 ng/ml of IL-3. The results are the number of colonies per 30 mm^2 petri dishes (FIG. 4). As observed in Example III, different S100 proteins have stimulatory activity on bone marrow cells.

Row | Molecule | activity in patients with advanced leukemia (advanced leukemia) | neutrophils among leukocytes recruited (leukocytes) [%] | proliferation of bone marrow cells (bone marrow cells) | proliferation of bone marrow cells from AML and CML patients [1]
1 | Nc1ccn([C@@H]2CO[C@H](CO)O2)c(=O)n1 [β-L-OddC, (−)-β-L-Dioxolane-Cytidine] | significant activity | – | – | –
2 | S100A8: recombinant S100 calcium-binding protein, Myeloid Related Protein (MRP) (protein, UniProt P05109 1-93, looked up) Protein S100-A8: MLTELEKALNSIIDVYHKYSLIKGNFHAVYRDDLKKLLETECPQYIRKKGADVWFKELDINTDGAVNFQEFLILVIKMGVAAHKKSHEESHKE | – | 80 | increase of proliferation | proliferation also occurs
3 | S100A8/A9: heterodimer of S100A8 and S100A9 (protein, UniProt P05109 1-93; P06702 1-114, looked up) Protein S100-A8: MLTELEKALNSIIDVYHKYSLIKGNFHAVYRDDLKKLLETECPQYIRKKGADVWFKELDINTDGAVNFQEFLILVIKMGVAAHKKSHEESHKE Protein S100-A9: MTCKMSQLERNIETIINTFHQYSVKLGHPDTLNQGEFKELVRKDLQNFLKKENKNEKVIEHIMEDLDTNADKQLSFEEFIMLMARLTWASHEKMHEGDEGPGHHHKPGLGEGTP | – | 80 | increase of proliferation | –
4 | S100A9: recombinant S100 calcium-binding protein, Myeloid Related Protein (MRP) (protein, UniProt P06702 1-114, looked up) Protein S100-A9: MTCKMSQLERNIETIINTFHQYSVKLGHPDTLNQGEFKELVRKDLQNFLKKENKNEKVIEHIMEDLDTNADKQLSFEEFIMLMARLTWASHEKMHEGDEGPGHHHKPGLGEGTP | – | 80 | increase of proliferation | proliferation also occurs
